Literature values, collected in paper PMC4475429.

Target: PKA RIα (Homo sapiens) (UniProt P10644)
Sequence (P10644 whole entry): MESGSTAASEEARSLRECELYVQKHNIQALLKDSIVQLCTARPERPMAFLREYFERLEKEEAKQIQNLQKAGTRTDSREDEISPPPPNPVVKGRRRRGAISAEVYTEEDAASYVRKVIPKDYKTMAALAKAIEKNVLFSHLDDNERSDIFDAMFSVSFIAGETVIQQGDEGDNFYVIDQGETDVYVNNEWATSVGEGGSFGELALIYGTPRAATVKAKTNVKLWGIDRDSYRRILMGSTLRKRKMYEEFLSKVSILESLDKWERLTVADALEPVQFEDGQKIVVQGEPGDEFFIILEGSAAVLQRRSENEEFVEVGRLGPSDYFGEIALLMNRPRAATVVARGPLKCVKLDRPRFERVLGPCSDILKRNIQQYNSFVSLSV

Chain of Ht31 (Q12802 whole entry): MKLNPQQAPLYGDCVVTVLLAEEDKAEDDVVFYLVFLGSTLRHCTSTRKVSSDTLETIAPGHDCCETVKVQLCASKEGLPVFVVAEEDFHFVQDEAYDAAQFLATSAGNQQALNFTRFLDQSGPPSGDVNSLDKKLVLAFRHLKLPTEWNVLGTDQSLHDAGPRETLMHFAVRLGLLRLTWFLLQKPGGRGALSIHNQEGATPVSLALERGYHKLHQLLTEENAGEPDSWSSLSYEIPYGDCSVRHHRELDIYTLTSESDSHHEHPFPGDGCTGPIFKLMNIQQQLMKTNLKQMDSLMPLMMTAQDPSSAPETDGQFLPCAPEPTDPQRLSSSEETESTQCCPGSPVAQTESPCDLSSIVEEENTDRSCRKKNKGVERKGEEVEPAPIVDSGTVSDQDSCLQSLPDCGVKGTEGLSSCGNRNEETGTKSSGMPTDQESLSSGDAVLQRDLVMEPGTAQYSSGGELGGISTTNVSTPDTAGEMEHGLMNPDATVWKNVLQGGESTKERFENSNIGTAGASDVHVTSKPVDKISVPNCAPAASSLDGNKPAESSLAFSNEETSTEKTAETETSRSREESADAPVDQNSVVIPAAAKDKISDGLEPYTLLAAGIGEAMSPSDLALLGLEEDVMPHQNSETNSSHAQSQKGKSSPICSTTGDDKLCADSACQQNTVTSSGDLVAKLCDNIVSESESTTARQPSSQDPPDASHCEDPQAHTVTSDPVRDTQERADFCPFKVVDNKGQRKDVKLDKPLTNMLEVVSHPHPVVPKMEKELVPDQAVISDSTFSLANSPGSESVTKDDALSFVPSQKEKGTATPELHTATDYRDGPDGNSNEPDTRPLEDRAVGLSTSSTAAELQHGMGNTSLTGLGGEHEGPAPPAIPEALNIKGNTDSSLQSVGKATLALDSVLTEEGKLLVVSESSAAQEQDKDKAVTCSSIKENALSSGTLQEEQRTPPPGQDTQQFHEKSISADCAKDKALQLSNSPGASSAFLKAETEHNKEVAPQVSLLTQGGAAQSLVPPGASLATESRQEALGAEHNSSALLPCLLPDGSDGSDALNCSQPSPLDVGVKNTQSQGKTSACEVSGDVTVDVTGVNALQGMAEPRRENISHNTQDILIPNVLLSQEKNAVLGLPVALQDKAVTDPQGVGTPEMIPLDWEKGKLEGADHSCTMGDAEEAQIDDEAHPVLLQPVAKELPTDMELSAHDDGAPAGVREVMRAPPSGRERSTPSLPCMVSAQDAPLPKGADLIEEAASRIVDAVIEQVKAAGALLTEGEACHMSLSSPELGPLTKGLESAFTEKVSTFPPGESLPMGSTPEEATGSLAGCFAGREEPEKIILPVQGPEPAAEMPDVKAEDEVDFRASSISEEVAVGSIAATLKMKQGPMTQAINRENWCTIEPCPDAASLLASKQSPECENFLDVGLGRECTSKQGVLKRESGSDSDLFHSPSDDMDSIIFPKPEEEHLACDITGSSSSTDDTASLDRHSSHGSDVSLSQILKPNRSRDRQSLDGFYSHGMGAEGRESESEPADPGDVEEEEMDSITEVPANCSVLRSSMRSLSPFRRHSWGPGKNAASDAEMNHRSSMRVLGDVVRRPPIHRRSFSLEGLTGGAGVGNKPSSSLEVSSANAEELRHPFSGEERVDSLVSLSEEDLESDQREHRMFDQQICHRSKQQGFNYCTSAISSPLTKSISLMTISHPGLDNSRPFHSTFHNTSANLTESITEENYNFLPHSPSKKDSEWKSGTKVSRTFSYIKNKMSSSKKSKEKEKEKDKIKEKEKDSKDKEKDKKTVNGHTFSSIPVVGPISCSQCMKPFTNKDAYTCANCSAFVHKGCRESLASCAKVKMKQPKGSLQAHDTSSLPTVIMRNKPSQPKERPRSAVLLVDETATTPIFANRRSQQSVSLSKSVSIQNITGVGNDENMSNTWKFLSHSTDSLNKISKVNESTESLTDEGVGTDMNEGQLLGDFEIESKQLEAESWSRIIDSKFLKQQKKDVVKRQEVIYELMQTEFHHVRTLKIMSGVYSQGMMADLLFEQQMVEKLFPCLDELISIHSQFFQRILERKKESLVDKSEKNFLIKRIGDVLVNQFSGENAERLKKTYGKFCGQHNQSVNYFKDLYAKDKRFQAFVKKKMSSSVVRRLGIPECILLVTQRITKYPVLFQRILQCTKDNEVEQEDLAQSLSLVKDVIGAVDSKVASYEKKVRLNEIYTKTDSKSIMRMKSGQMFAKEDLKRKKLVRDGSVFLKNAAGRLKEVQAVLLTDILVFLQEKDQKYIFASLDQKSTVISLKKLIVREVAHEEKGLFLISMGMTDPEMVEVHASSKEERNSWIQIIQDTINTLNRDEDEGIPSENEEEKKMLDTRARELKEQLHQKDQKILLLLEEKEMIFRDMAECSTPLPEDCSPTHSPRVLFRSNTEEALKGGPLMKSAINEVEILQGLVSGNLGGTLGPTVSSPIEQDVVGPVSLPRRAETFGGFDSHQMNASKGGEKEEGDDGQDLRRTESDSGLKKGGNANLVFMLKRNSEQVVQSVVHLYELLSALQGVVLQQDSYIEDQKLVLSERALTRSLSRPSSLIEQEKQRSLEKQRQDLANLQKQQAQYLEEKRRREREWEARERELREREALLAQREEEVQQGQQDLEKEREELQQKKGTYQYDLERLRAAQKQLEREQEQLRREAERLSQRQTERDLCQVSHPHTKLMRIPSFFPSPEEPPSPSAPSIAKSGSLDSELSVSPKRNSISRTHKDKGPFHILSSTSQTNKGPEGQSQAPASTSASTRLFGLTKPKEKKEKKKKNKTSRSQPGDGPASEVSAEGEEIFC

## Ht31 (from UniProt Q12802)
  Kd: 2100 nM
